# Assay results: paper PMC10533564 (Communications Biology, 2023)
# Tests used:
# [1] = molecular target: T1, sTNFR2, monomeric extracellular domains of TNFR2 obtained from etanercept (Homo sapiens, UniProt P20333); assay: SPR; antibody captured (~400 RU) on anti-human IgG Fc on a CM5 chip, sTNFR2 as analyte in twofold dilution series; PBS with 0.005% Tween 20, pH 7.4, 25 °C; 1:1 global kinetics fit; conditions: both partners purified
# T1 construct: extracellular domains of TNFR2 as in etanercept; also called TNFR2 ECD; source: from etanercept (Pfizer): IdeS digestion, reduction with 2-mercaptoethylamine, purified (Protein A flow-through, SEC); not shown: Fc (human IgG1, of etanercept), C-terminal, cleaved
# [2] = molecular target: T2, tumor necrosis factor-alpha (TNFα) (UniProt P01375); assay: SPR; TNFα immobilised on a CM5 chip by amine coupling (140 RU); antibodies 10 nM or 100 nM flowed; HBS-EP+, 25 °C; conditions: both partners purified
# T2 construct: tumor necrosis factor-alpha; source: bought: Peprotech #AF-200-01A (named for the reporter assay)
# T2 sequence (P01375 77-233): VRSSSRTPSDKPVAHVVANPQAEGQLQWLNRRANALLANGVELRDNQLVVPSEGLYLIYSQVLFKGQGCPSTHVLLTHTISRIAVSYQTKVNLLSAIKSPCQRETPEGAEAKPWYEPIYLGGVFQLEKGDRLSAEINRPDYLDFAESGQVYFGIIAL
Kd [1],Binder,binding result [2],further results
4 nM,"TR92 chimeric conventional IgG (antibody, V domains shown) VH: KVQLQQSGAELVKPGASVKLSCKASGYTFTESIIHWVKQRSGQGLEWIGWFYPGSDNINYNEKFKDKATLTADKSSSTVYMELTRLTSEDSAVYFCASHEGPYVYFDYWGQGTTLTVSS VL: DIVMTQSHKFMSTSVGDRVSITCKASQDVSTAVAWYQQKPGQSPKLLIYWTSTRHTGVPDRFTGSGSGTDYTLTISSVQAEDLALYYCQHHYSTPYTFGGGTKLEIQ",,
,"TR92 cIgG (chimeric, human IgG1/kappa) (antibody, V domains shown) VH: KVQLQQSGAELVKPGASVKLSCKASGYTFTESIIHWVKQRSGQGLEWIGWFYPGSDNINYNEKFKDKATLTADKSSSTVYMELTRLTSEDSAVYFCASHEGPYVYFDYWGQGTTLTVSS VL: DIVMTQSHKFMSTSVGDRVSITCKASQDVSTAVAWYQQKPGQSPKLLIYWTSTRHTGVPDRFTGSGSGTDYTLTISSVQAEDLALYYCQHHYSTPYTFGGGTKLEIQ",no binding (tested: 10 nM or 100 nM),
5.6 nM,"TR109 chimeric conventional IgG (antibody, V domains shown) VH: QVQLKESGPGLVAPSQSLSITCTVSGFSLTVYGVNWVRQPPGKGLEWLGMIWGDGSTAYNSALKSRLTITKDNSKTQVFLKMNSLQTDDTARYYCARDGRRYALDYWGQGTSVTVSS VL: DIVLTQSPTSLAVSLGQRATISCRASESVDSYGDSFLHWYQQKPGQPPILLIYRASNLDSGIPARFSGSGSRTDFTLTINPVEADDVATYYCQQSNEDPYTFGGGTKLEIK",,
,"TR109 cIgG (chimeric, human IgG1/kappa) (antibody, V domains shown) VH: QVQLKESGPGLVAPSQSLSITCTVSGFSLTVYGVNWVRQPPGKGLEWLGMIWGDGSTAYNSALKSRLTITKDNSKTQVFLKMNSLQTDDTARYYCARDGRRYALDYWGQGTSVTVSS VL: DIVLTQSPTSLAVSLGQRATISCRASESVDSYGDSFLHWYQQKPGQPPILLIYRASNLDSGIPARFSGSGSRTDFTLTINPVEADDVATYYCQQSNEDPYTFGGGTKLEIK",no binding (tested: 10 nM or 100 nM),
19 nM,"TR45 chimeric conventional IgG (antibody, V domains shown) VH: EVQLQQSGPEMEKPGASVKISCKASGYSFTGYNMNWVKQSIGKSLEWIGKIDPYYGGTDYNLRFKDKATLTVDKSSSTAYMHLSRLTSEDSAVYYCAREPNYGSNDWYFDVWGAGTTVTVSS VL: DIQVTQTTSSLSASLGDRVTISCRASQDIDNYLNWYQQRPDGTVKLLIYYTSILHSGVPSRFSGSGSRTDFSLTISSLEEEDFATYFCQQGNTLPWTFGGGTKLEFK",,
,"TR45 cIgG (chimeric, human IgG1/kappa) (antibody, V domains shown) VH: EVQLQQSGPEMEKPGASVKISCKASGYSFTGYNMNWVKQSIGKSLEWIGKIDPYYGGTDYNLRFKDKATLTVDKSSSTAYMHLSRLTSEDSAVYYCAREPNYGSNDWYFDVWGAGTTVTVSS VL: DIQVTQTTSSLSASLGDRVTISCRASQDIDNYLNWYQQRPDGTVKLLIYYTSILHSGVPSRFSGSGSRTDFSLTISSLEEEDFATYFCQQGNTLPWTFGGGTKLEFK",no binding (tested: 10 nM or 100 nM),
0.42 nM,"TR96 chimeric conventional IgG (antibody, V domains shown) VH: EVQLQQSGAELVKPGASVKLSCTPSGFNIKDTYMHWVKQRPEQGLEWIGRIDPANGYTEYDPKFQDKATITADTSSNTAYLQLSSLTSEDTAVYYCADTQLYYWGQGTTLTVSS VL: QIVLTQSPAIMSASLGERVTMTCTASSSVSSTYLHWYQQKPGSSPKLWIYSTSNLASGVPARFSGSGSGTSYSLTISNMEAEDAATYYCHQYHRSPLTFGAGTKLELK",,koff [1]: 0.00024 s⁻¹; kon [1]: 580000 M⁻¹ s⁻¹
,"TR94 cIgG (chimeric, human IgG1/kappa) (antibody, V domains shown) VH: QVQLQQSGAELARPGTSVKLSCKASGYTFTSYWMQWVKQTPGQGLEWIGAIYPGDGDSRYIQKFKGKATLTADKSSSTAYMQLSSLASEDSAVYYCARDGNYYAMDYWGQGTSVTVSS VL: QIVLTQSPAIMSASLGERVTITCTASSSVSSTYLHWYQQKPGSSPKLWIYSTSNLASGVPARFSGSGSGTSYSLTISSMEAEDAATYYCHQYHRSPPTFGAGTKLELK",no binding (tested: 10 nM or 100 nM),
,"TR96 cIgG (chimeric, human IgG1/kappa) (antibody, V domains shown) VH: EVQLQQSGAELVKPGASVKLSCTPSGFNIKDTYMHWVKQRPEQGLEWIGRIDPANGYTEYDPKFQDKATITADTSSNTAYLQLSSLTSEDTAVYYCADTQLYYWGQGTTLTVSS VL: QIVLTQSPAIMSASLGERVTMTCTASSSVSSTYLHWYQQKPGSSPKLWIYSTSNLASGVPARFSGSGSGTSYSLTISNMEAEDAATYYCHQYHRSPLTFGAGTKLELK",no binding (tested: 10 nM or 100 nM),
